Measurements from patent publication US20240166765A1 (ICONIC THERAPEUTICS, published 2024).

B1: TF-011 (antibody, V domains shown)
VH: EVQLLESGGGLVQPGGSLRLSCAASGFTFSNYAMSWVRQAPGKGLEWVSSISGSGDYTYYTDSVKGRFTISRDNSKNTLYLQMNSLRAEDTAVYYCARSPWGYYLDSWGQGTLVTVSS
VL: DIQMTQSPPSLSASAGDRVTITCRASQGISSRLAWYQQKPEKAPKSLIYAASSLQSGVPSRFSGSGSGTDFTLTISSLQPEDFATYYCQQYNSYPYTFGQGTKLEIK
B2: TF-011 (antibody, V domains shown)
VH: EVQLLESGGGLVQPGGSLRLSCAASGFTFSNYAMSWVRQAPGKGLEWVSSISGSGDYTYYTDSVKGRFTISRDNSKNTLYLQMNSLRAEDTAVYYCARSPWGYYLDSWGQGTLVTVSS
VL: DIQMTQSPPSLSASAGDRVTITCRASQGISSRLAWYQQKPEKAPKSLIYAASSLQSGVPSRFSGSGSGTDFTLTISSLQPEDFATYYCQQYNSYPYTFGQGTKLEIK
B3: 39A (antibody, human IgG1, V domains shown)
VH: QVQLVQSGAEVKKPGSSVKVSCKASGGTFSSNAIGWVRQAPGQGLEWMGSIIPIIGFANYAQKFQGRVTITADESTSTAYMELSSLRSEDTAVYYCARDSGYYYGASSFGMDVWGQGTTVTVSS
VL: EIVMTQSPATLSVSPGERATLSCRASQSVSSNLAWYQQKPGQAPRLLIYGASTRATGIPARFSGSGSGTEFTLTISSLQSEDFAVYYCEQYNNLPLTFGGGTKVEIK
B4: 1F (antibody, human IgG1, V domains shown)
VH: EVQLLESGGGLVQPGGSLRLSCAASGFTFSDYAMGWVRQAPGKGLEWVSTISGSGGLTYYADSVKGRFTISRDNSKNTLYLQMNSLRAEDTAVYYCAKAPYGYYMDVWGKGTTVTVSS
VL: not shown
B5: 5G9 (humanized TF8-5G9, CNTO 860) (antibody, V domains shown)
VH: QVQLVESGGGVVQPGRSLRLSCKASGFNIKDYYMHWVRQAPGKGLEWIGLIDPENGNTIYDPKFQGRFTISADNSKNTLFLQMDSLRPEDTAVYYCARDNSYYFDYWGQGTPVTVSS
VL: DIQMTQSPSSLSASVGDRVTITCKASQDIRKYLNWYQQKPGKAPKLLIYYATSLADGVPSRFSGSGSGTDYTFTISSLQPEDIATYYCLQHGESPYTFGQGTKLEIT
B6: 29E (antibody, human IgG1, V domains shown)
VH: QVQLVESGGGVVQPGRSLRLSCAASGFTFRSYGMHWVRQAPGKGLEWVAVITYDGINKYYADSVEGRFTISRDNSKNTLYLQMNSLRAEDTAVYYCARDGVYYGVYDYWGQGTLVTVSS
VL: not shown

Legend:
Relipidated TF = Relipidated TF (UniProt P13726 33-295, limits assumed); assay: cell-based or functional assay
[1] = target: Relipidated TF (Tissue Factor) (UniProt P13726 33-295, limits assumed); assay: cell-based or functional assay

Binder	% Peak IIa, TGA […] min pre-incubation, 50 nM Ab (Relipidated TF)	% ETP, Ab 10 nM [1]	% Peak IIa, Ab 10 nM [1]	% Peak IIa, Ab 50 nM [1]	% ttPeak, Ab 10 nM [1]	% ttPeak, Ab 50 nM [1]	% ttPeak, Ab 100 nM [1]	ETP [nM · min], Ab 10 nM [1]	Lag Time [min], Ab 10 nM [1]	Lag Time [min], Ab 50 nM [1]	Peak IIa [nM], Ab 10 nM [1]	Peak IIa [nM], Ab 50 nM [1]	Peak IIa [nM], Ab 100 nM [1]	ttPeak [min], Ab 10 nM [1]	ttPeak [min], Ab 50 nM [1]	ttPeak [min], Ab 100 nM [1]	% Peak IIa, Ab 100 nM [1]	Lag Time [min], Ab 100 nM [1]	% ETP, TGA 10 min pre-incubation, 10 nM Ab (Relipidated TF)	% Peak IIa, TGA […] min pre-incubation, 10 nM Ab (Relipidated TF)	further results
B1	10%																				
B2		85%	47%	12%	86%	284%	353%	1710 nM·min	8 min	21.3 min	156 nM	39 nM	30 nM	14.7 min	30.3 min	35.8 min					
B3		84%	37%	11%	135%	397%	465%	1690 nM·min	10.8 min	29.8 min	122 nM	36 nM	29 nM	18.6 min	39.3 min	44.6 min	9%	34.7 min			
B4	8%																		41%	16%	% Peak IIa, TGA […] min pre-incubation, 100 nM Ab (Relipidated TF): 7%; % ttPeak, TGA 10 min pre-incubation, 10 nM Ab (Relipidated TF): 220%; % ttPeak, TGA 10 min pre-incubation, 50 nM Ab (Relipidated TF): 433%; % ttPeak, TGA 10 min pre-incubation, 100 nM Ab (Relipidated TF): 483%; ETP, TGA 10 min pre-incubation, 10 nM Ab (Relipidated TF): 742 nM·min; Lag Time, TGA 10 min pre-incubation, 10 nM Ab (Relipidated TF): 13.8 min; Lag Time, TGA 10 min pre-incubation, 50 nM Ab (Relipidated TF): 26.5 min; Lag Time, TGA 10 min pre-incubation, 100 nM Ab (Relipidated TF): 29.5 min; Peak IIa, TGA […] min pre-incubation, 10 nM Ab (Relipidated TF): 44 nM; Peak IIa, TGA […] min pre-incubation, 50 nM Ab (Relipidated TF): 23 nM; Peak IIa, TGA […] min pre-incubation, 100 nM Ab (Relipidated TF): 20 nM; ttPeak, TGA 10 min pre-incubation, 10 nM Ab (Relipidated TF): 22.4 min; ttPeak, TGA 10 min pre-incubation, 50 nM Ab (Relipidated TF): 37.3 min; ttPeak, TGA 10 min pre-incubation, 100 nM Ab (Relipidated TF): 40.8 min
B5		58%	24%	8%	135%	338%	401%	1180 nM·min	10.4 min	25.1 min	79 nM	28 nM	27 nM	18.6 min	34.6 min	39.6 min	8%	29.9 min			
B6	30%																		77%	36%	% ETP, TGA 10 min pre-incubation, 50 nM Ab (Relipidated TF): 72%; % ETP, TGA 10 min pre-incubation, 100 nM Ab (Relipidated TF): 66%; % Peak IIa, TGA […] min pre-incubation, 100 nM Ab (Relipidated TF): 28%; % ttPeak, TGA 10 min pre-incubation, 10 nM Ab (Relipidated TF): 159%; % ttPeak, TGA 10 min pre-incubation, 50 nM Ab (Relipidated TF): 237%; % ttPeak, TGA 10 min pre-incubation, 100 nM Ab (Relipidated TF): 247%; ETP, TGA 10 min pre-incubation, 10 nM Ab (Relipidated TF): 1410 nM·min; ETP, TGA 10 min pre-incubation, 50 nM Ab (Relipidated TF): 1300 nM·min; ETP, TGA 10 min pre-incubation, 100 nM Ab (Relipidated TF): 1200 nM·min; Lag Time, TGA 10 min pre-incubation, 10 nM Ab (Relipidated TF): 9.4 min; Lag Time, TGA 10 min pre-incubation, 50 nM Ab (Relipidated TF): 14.1 min; Lag Time, TGA 10 min pre-incubation, 100 nM Ab (Relipidated TF): 14.7 min; Peak IIa, TGA […] min pre-incubation, 10 nM Ab (Relipidated TF): 98 nM; Peak IIa, TGA […] min pre-incubation, 50 nM Ab (Relipidated TF): 83 nM; Peak IIa, TGA […] min pre-incubation, 100 nM Ab (Relipidated TF): 76 nM; ttPeak, TGA 10 min pre-incubation, 10 nM Ab (Relipidated TF): 18.1 min; ttPeak, TGA 10 min pre-incubation, 50 nM Ab (Relipidated TF): 23.6 min; ttPeak, TGA 10 min pre-incubation, 100 nM Ab (Relipidated TF): 24.3 min
